Results: patent US20150191541A1 (NEOTOPE BIOSCIENCES, published 2015)
Positions count from the first letter of the chain named. One block for each binder: values may come before it. Positions of bridges follow the written chain, without caps; N, C: chain ends. No end group written: not given here.

What was measured:
[1] = target: T1, peptide of amino acid residues 1-10 of IAPP (human, disulfide 2-7); assay: epitope mapping
T1 construct: also called IAPP 1-10
T1 peptide: KCNTATCATQ

[2] = target: T2, human islet-amyloid polypeptide (IAPP) (human); assay: ELISA screen of hybridomas on IAPP
T2 construct: also called hIAPP; amylin
T2 peptide: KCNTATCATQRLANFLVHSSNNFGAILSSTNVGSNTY

rat IAPP = target: T3, rat IAPP (rat, UniProt P12969 38-74); assay: Biacore SPR, antibody captured on anti-human CM5 chip, rat IAPP as analyte
T3 construct: also called rat islet-amyloid polypeptide
T3 peptide (looked up): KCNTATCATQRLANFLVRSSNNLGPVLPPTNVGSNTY
Experimental: The affinity of various combinations of 8A9 humanized heavy chains and humanized light chain proteins for hIAPP was analyzed on a Biacore instrument. Biacore analysis was performed by preparing an anti-human CM5 chip following the protocol provided in the kit. The 8A9 antibody was captured such that the maximum binding of rat IAPP would not exceed 20-30 RU. […] Data was blank subtracted to both an irrelevant sensor not containing 8A9 and 0 IAPP concentration to account for the dissociation of 8A9 from the anti-human capture. Data was then analyzed using a global 1:1 fit.

binding result [1]: binds
binding result [2]: binds
B1: murine 8A9 antibody (antibody, V domains shown)
VH: QVQLKESGPGLVAPSQSLSITCTVSGFSLTNYAVHWVRQPPGKGLEWLGVIWSGGNTNYNSALMSRLRISKDNSQSQVFLKMNSLQTDDTGMYYCARDRGYYGGIYGFANWGQGTLVTVSS
VL: DIQMTQSPSSLSASLGKRVSLTCRASQEISGYLSWLQQKPDGTIKRLIYAASTSDSGVPKRFSGSRSGSDYSLTISSVESEDFADYYCLQYADYPYTFGGGTKLEIK
notes: Mouse hybridoma antibody; also called m8A9; mouse 8A9 antibody

fold difference of affinity against murine 8A9 (rat IAPP): < 2 fold
B2: humanized 8A9 antibody version H7L3 (antibody, V domains shown)
VH: B1 VH with K5Q, E6Q, A13K, I20L, R68T, S76N, M82L, Q86T, D88A, M92V
VL: DIQMTQSPSSLSASVGDRVTITCRASQEISGYLSWLQQKPGKAIKRLIYAASTSDSGVPSRFSGSRSGSDYTLTISSLQPEDFADYYCLQYADYPYTFGGGTKVEIK
notes: also called H8A9-H7L3
